This series is described as follows: yeast display, Sf9 membrane polyspecificity reagent, FACS + sequencing; frameworks hold sequencing errors. The essentials: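 After 36–48 hours of galactose induction, yeast (Saccharomyces cerevisiae BJ5465) displaying a synthetic nanobody library were stained at 4 °C for 1 hour with 10% biotinylated, detergent-solubilized Sf9 membrane reagent. Streptavidin microbeads enriched the stained cells before FACS sorting into low and high (top ~1%) gates on anti-HA and streptavidin fluorescence. Each clone's polyreactivity label reflects its gate of origin.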
With “QVQLVESGGGLVQAGGSLRLSCAASGSTFGGYGMGWYRQAPGQERELVASISGGGNTNYADSVKGRFTISRDNAKNTVYLQKNSLKPEDTAVYYCNARINSWYSTYRYYYWGQGTQVTVSS”, the “polyreactivity (PSR sort gate)” value is reported as “low polyreactivity”.

For “QVQLVESGGGLVQAGGSLRLSCAASGSTFGINAMGWYRQAPGKERELVASITRRGGSTYYADSVKGRFTISRDNAKNTVYLQMHSLKPEDTAVYYCAAGNKRRFEGDYWGQGTQVTVSS”, the “polyreactivity (PSR sort gate)” value is on record as “high polyreactivity”.

As to “QVQLVESGGGLVQAGGSLRLSCAASGSTFGIYVMGWYRQAPGKERELVADISSSGGSTYYADSVKGRFTISRDNAKNTVYLQMNSLKPEDTAVYYCNAYHWDGDGVFYEYDYWGQGTQVTVSS”, the “polyreactivity (PSR sort gate)” value was “high polyreactivity”.

Turning to “QVQLVESGGGLVQAGGSLRLSCAASGSTFGKYAMGWYRQAPGKERELVAAISKSGGSTYYADSVKGRFTISRDNAKNTVYLQMNSLKPEDTAVYYCNAYPHAYTGSTREGDYWGQGTQVTVSS”, the “polyreactivity (PSR sort gate)” value is “high polyreactivity”.

For the sequence “QVQLVESGGGLVQAGGSLRLSCAASGSTFGKYAMGWYRQAPGKERELVAAITRRTGSTYYADSVKGRFTISRDNAKNTVYLQMNSLKPVDTAVYYCAARLPQYRYDYWGQGTQVTVSS”, the “polyreactivity (PSR sort gate)” value is listed as “high polyreactivity”.

In the case of “QVQLVESGGGLVQAGGSLRLSCAASGSTFGKYAMGWYRQAPGKERELVARIDSGDRTRYADSVKGRFTISRDNAKNTVYLQMNSLKPEDTAVYYCAARYVGARNAYRMGYWGQGTQVTVSS”, the “polyreactivity (PSR sort gate)” value was “high polyreactivity”.

Consider “QVQLVESGGGLVQAGGSLRLSCAASGSTFGLNVMGWYRQAPGKEREFVAGISRSGGRTYYADSVKGRFTISRDNAKNTVYLQMNSLKPEDTAVYYRAADYWTGITPDAIGDYWGQGTQVTVSS”, for which the “polyreactivity (PSR sort gate)” value is recorded as “low polyreactivity”.

For the sequence “QVQLVESGGGLVQAGGSLRLSCAASGSTFGLYAMGWYRQAPGKERELVAAISSGGRTNYADSVKGRFTISRDNAKNTVYLQMNSLKPEDTAVYYCASAYIRGSRRYDYWGQGTQVTVSS”, the “polyreactivity (PSR sort gate)” value was “high polyreactivity”.

In the case of “QVQLVESGGGLVQAGGSLRLSCAASGSTFGLYAMGWYRQAPGKERELVAAITSTGGSTYYADSVKGRFTISRDNAKNTVYLQMNSLKPEDTAVYYCARDYRSGYDYWGQGTQVTVSS”, the “polyreactivity (PSR sort gate)” value was “low polyreactivity”.

Turning to “QVQLVESGGGLVQAGGSLRLSCAASGSTFGLYAMGWYRQAPGKERELVADITWSGGSTYYADSVKGRFTISRDNAKNTVYLQMNSLKPEDTAVYYCAADGYDQYPLWAPPGDYWGQGTQVTVSS”, the “polyreactivity (PSR sort gate)” value is recorded as “low polyreactivity”.

As to “QVQLVESGGGLVQAGGSLRLSCAASGSTFGLYAMGWYSQAPGKEREMVAVISWRGGSTIYADSVKGRFTISRDNAKITVYLEMNSLKPEDTAVYYCNAKQSYYYPWRGYNYWGQGTQVTVSS”, the “polyreactivity (PSR sort gate)” value is “high polyreactivity”.

Take “QVQLVESGGGLVQAGGSLRLSCAASGSTFGLYTMGWYRQAPGKERELVASISIGGSTYYADSVKGRFTISRDNAKNTVYLQMNSLKPEDTAVYYCAADVKRDRVWGGDYWGQGTQVTVSS”: the “polyreactivity (PSR sort gate)” value is “low polyreactivity”.

Take “QVQLVESGGGLVQAGGSLRLSCAASGSTFGLYVMGWYRQAPGKERELVAAISWSGGSTYYADSVKGRFTISRDTAKNTVYLQMNSLKPEDTAVYYCAKVFRTYRYPYGYWGQGTQVTVSS”: the “polyreactivity (PSR sort gate)” value was “high polyreactivity”.

Consider “QVQLVESGGGLVQAGGSLRLSCAASGSTFGNYAMGWDRQAPGKERELVAAITSSGRTYYADSVKGRFTISRDNAKNTVYFQMNSLKPEDTAVYYCAAKSSRGGSVGFDYWGQGTQVTVSS”, for which the “polyreactivity (PSR sort gate)” value was “high polyreactivity”.

As for “QVQLVESGGGLVQAGGSLRLSCAASGSTFGNYAMGWYRQATGKERELVAASRWSGTRTFYADSVKGRFTISRDNAKNTVYLQMNSLKPEDTAVYYCNAVYSQPGYKGGYSWGQGTQVTVSS”, the “polyreactivity (PSR sort gate)” value is on record as “high polyreactivity”.

Regarding “QVQLVESGGGLVQAGGSLRLSCAASGSTFGPNTMGWYRQAPGKERELVAAINLRGGRTYYADSVKGRFTISRDNAKNTVYLQMNSLKPEDTAVYYCAARFKTTGYDYWGQGTQVTVSS”, the “polyreactivity (PSR sort gate)” value is reported as “high polyreactivity”.

“QVQLVESGGGLVQAGGSLRLSCAASGSTFGPYAMGWYRQAPGKERELVAAIRSDGGTYYADSVTGRFTISRDNAKNTVYLQMNSLKPEDTAVYYCNAVPVGWRYRQYDYWGQGPQVTVSS”: the “polyreactivity (PSR sort gate)” value was “high polyreactivity”.

As to “QVQLVESGGGLVQAGGSLRLSCAASGSTFGPYAMGWYRQAPGKERELVADITVSDGSTYYADSVKGRFTISRDNAKNTVYLQMNSLKPEDTAVYYCAAEIYYSFGYWGQGTQVTVSS”, the “polyreactivity (PSR sort gate)” value is recorded as “low polyreactivity”.

With “QVQLVESGGGLVQAGGSLRLSCAASGSTFGPYAMGWYRQAPGKERELVATIRGSGATTYYADSVKGRFTISRDNAKNTVYLQMHSLKPEDTAVYYCATAYFSGWYNRYGRATSYDYWGQGTQVTVSS”, the “polyreactivity (PSR sort gate)” value was “high polyreactivity”.

As to “QVQLVESGGGLVQAGGSLRLSCAASGSTFGQYAMGWYRQAPGKELELVAAISSGGRTNYADSVKGRFTISRDNAKNPVYLQMNSLKPEDTAVYYCAARYYFPFRRFRRMDYWGQGTQVTVSS”, the “polyreactivity (PSR sort gate)” value was “high polyreactivity”.

“QVQLVESGGGLVQAGGSLRLSCAASGSTFGRNAMGWYIQAPGKERELVAAISNRGGRTYYADSVKARFTISRDNAKNTVYFQMNSLKPEDTAVYYCAAEHRVQQGDYWGQGTQVTVSS”: the “polyreactivity (PSR sort gate)” value was “high polyreactivity”.

With “QVQLVESGGGLVQAGGSLRLSCAASGSTFGRNAMGWYRQAPGKEREFVAAISSRGGRTSYADSVKGRFTISRDNAKNTVYLQMNSLKPEDTAVYYCATLGYFSASRTDYDYWGQGTQVTVSS”, the “polyreactivity (PSR sort gate)” value is reported as “low polyreactivity”.

As to “QVQLVESGGGLVQAGGSLRLSCAASGSTFGRNAMGWYRQAPGKERELVAAISKTGGSTYYADSVKGRFTISRDNAKNTVYLQMNSLKPEDTAVYYCAARIRGFRTYYYWGQGTQVTVSS”, the “polyreactivity (PSR sort gate)” value was “high polyreactivity”.

On to “QVQLVESGGGLVQAGGSLRLSCAASGSTFGRNAMGWYRQAPGKERELVAAISSGGRTYYADSVKGRFTISRDNAKNTVYLQMNSLKPEDTAVYYCARDDYGTLVKLYVRGFNYWGQGTQVTVSS”, for which the “polyreactivity (PSR sort gate)” value is reported as “low polyreactivity”.

For the sequence “QVQLVESGGGLVQAGGSLRLSCAASGSTFGRNARGWYRQAPGKERELVAAITASGGTTYYADSVKGRFTISRDNAKNTVYLQMNSLKPEDTAVYYCNVSYLVYRWNFGWSMDFWGQGTQLTVSS”, the “polyreactivity (PSR sort gate)” value was “low polyreactivity”.

On to “QVQLVESGGGLVQAGGSLRLSCAASGSTFGRNTMGWYRQAPGKERELVAAITSGDTTTYADSVKGRFTISRDNAKNTVYLQMNSLKPEDTAVYYCAVDPVRGRDYSWMDYWGQGTQVTVSS”, for which the “polyreactivity (PSR sort gate)” value is “low polyreactivity”.

Regarding “QVQLVESGGGLVQAGGSLRLSCAASGSTFGRNVIGWYRQAPGKERELVAAISIRGGSTYYADSVKGRFTISRDIAKNTVYLQMNSLKPEDTAVYYCALDYPTDAYDYWGQGTQVTVSS”, the “polyreactivity (PSR sort gate)” value is recorded as “low polyreactivity”.

On to “QVQLVESGGGLVQAGGSLRLSCAASGSTFGRYAMGWYRPAPGKGRELDGAISRRGGSTYYADSVKGRFTISRDYAMKTVYFQMHSLKPEDTAVYDCATGYPIELGREFDYWGQGIQVTVSS”, for which the “polyreactivity (PSR sort gate)” value is reported as “high polyreactivity”.

For the sequence “QVQLVESGGGLVQAGGSLRLSCAASGSTFGRYVMGWYRPAPGKERELVAAISKNAGSTYYADSVKGRFTISRDNAKNTVYLQMNSLKPEDTAVYYCNAQSFREYGYWGQGTQVTVSS”, the “polyreactivity (PSR sort gate)” value is recorded as “high polyreactivity”.

Turning to “QVQLVESGGGLVQAGGSLRLSCAASGSTFGSNAMGWYRQAPGKEREFVAAITWSGGSTYYADSVKGRFTISRDNAKNTVYLQMNSLKPEDTAVYYCAAESDSYFREYDYWGQGTQVTVSS”, the “polyreactivity (PSR sort gate)” value is “low polyreactivity”.

For the origin of these results see the nanobody polyreactivity screen of Harvey et al. (2022).
